Measured values reported in US12723255B2, “Herbicide tolerance genes and methods of use thereof” (priority 2014, dated 2026).

Legend:
F1 hybrid maize plants = experiment: trait efficacy field trial, 2,4-D pressure screening, F1 hybrid; format: in vivo; conditions: crop injury percentage; for 4X 2,4-D CIPV4 / 4X 2,4-D CIPV8: 4 lb ae/acre at VE-V2, V4, V8; for 8X 2,4-D CIPV4 / 8X 2,4-D CIPV8: 8 lb ae/acre at VE-V2, V4, V8; for 16X 2,4-D CIPV4 / 16X 2,4-D CIPV8: 16 lb ae/acre at VE-V2, V4, V8
Protocol: Separate trait efficacy field trials for quizalofop-P and 2,4-D pressure screening were conducted at one location each with F1 hybrid transgenic plants produced by crossing an inbred plant containing maize event MON89034 with an R1 plant containing MON-HT1, MON-HT2, MON-HT8, MON-HT9, and MON-HT10 with and without operably linked CTP sequences. Transgenic F1 hybrid plants containing maize events NK603×MON89034 were used for comparison as a control.
Three herbicide treatments were used in the trait efficacy field trial for 2,4-D tolerance: (1) 2,4-D amine at 4 lb ac/acre (4×) plus 0.25% v/v NIS applied to VE-V2 followed by V4 followed by V8; (2) 2,4-D amine at 8 lb ac/acre (8×) plus 0.25% v/v NIS applied to VE-V2 followed by V4followed by V8 maize; or (3) 2,4-D amine at 16 lb ac/acre (16×) plus 0.25% v/v NIS applied to VE-V2 followed by V4 followed by V8. Plots were visually rated as above.
The injury rating for the control plants after all 2,4-D applications ranged from 80% to 96.25%. At the highest rate of 2,4-D (16×) applied through V8, the plants containing MON-HT1 or MON-HT2 operably linked to any of the three CTPs (A, B, or C) had better tolerance than plants containing MON-HT1 or MON-HT2 not operably linked to a CTP. Plants containing MON-HT1, MON-HT2, or MON-HT8 with or without an operably linked CTP had better tolerance to 2,4-D at all applications tested compared to plants containing either MON-HT9 or MON-HT10 with an operably linked ‘A’ CTP. Over the range of 2,4-D applications the relative ranking of tolerance was: plants containing MON-HT1 had better tolerance than plants containing MON-HT2 which were in turn better than plants containing MON-HT8. […] Error was calculated using LSD (0.05).

transgenic maize plants = experiment: trait efficacy field trials with homozygous inbred plants, CTP evaluation; format: in vivo; conditions: crop injury percentage
Description: To evaluate different chloroplast targeting peptides (CTP), plant transformation vectors were constructed, each comprising a recombinant DNA molecule optimized for monocot expression and encoding MON-HTI (SEQ ID NO: 16), MON-HT2 (SEQ ID NO:20), and MON-HT8 (SEQ ID NO:39), MON-HT9 (SEQ ID NO:42), or MON-HT10 (SEQ ID NO:45). The vectors were created using the same combination of promoter, leader, intron, and 3′-UTR, but with one of three separate CTPs (A, B, or C) or without a CTP operably linked to the protein-coding sequence. The DNA constructs were used to transform immature maize (LH244) embryos using Agrobacterium tumifaciens and standard methods known in the art. Regenerated RO transgenic plantlets were grown in the green house. The R0 plants were selfed to generate R1 homozygous seed. The R0 plants were also used as the male to cross with inbred plants containing maize event MON89034 to generate segregating F1 hybrid seed for trait efficacy field trials.
Separate trait efficacy field trials for quizalofop-P and 2,4-D were conducted at two locations each with the homozygous inbred transgenic plants (R2 or R4 generation). In these field trials, one of two herbicide treatments was used: (1) quizalofop-P (Assure II) at 0.16 lb ai/acre (2×) plus 0.25% v/v non-ionic surfactant (NIS) applied at V4 growth stage followed by the same at V8 growth stage; or (2) 2,4-D amine at 2 lb ae/acre (2×) plus 0.25% v/v non-ionic surfactant (NIS) applied to V4 followed by V8. Injury ratings (crop injury percentage at V4 (CIPV4) or V8 (CIPV8)) were taken 10 to 14 days after the V4 and V8 applications. Error was calculated using LSD (0.05).

[1] = format: biochemical
Protocol: To analyze these engineered proteins for activity in higher temperatures, the in vitro enzyme assay in Example 1 was modified to specify pre-heating all of the assay components to the desired temperature for 5 minutes before combining the components and then maintaining the reaction at the desired temperature for the duration of the reaction. To normalize the assay measurements, quizalofop-P was used as the substrate for the reaction and enzyme activity was normalized based on the 25° C. readings. Using these parameters, the temperature at which the enzyme activity was half of maximum (T1/2) was calculated. The T1/2 for MON-HT55 was calculated to be 29° C., and the T1/2 for wild-type RdpA was calculated to be 38° C. (FIG. 2A).
Enzyme activity over a range of temperatures was analyzed in-depth for MON-HT1, MON-HT2, MON-HT7, and MON-HT8. These assays were conducted as described above. Quizalofop-P or 2,4-D was used as the substrate for these reactions and activity was normalized based on the activity of the wild-type enzyme at 25° C. The activity curves obtained are presented in FIG. 2B (with quizalofop-P as the substrate) and FIG. 2C (with 2,4-D as the substrate). Using quizalofop-P as the substrate, MON-HT55 was the most temperature sensitive, with a T1/2 of 29° C. […] MON-HTI was slightly less temperature sensitive, with a T1/2 about 1° C. higher than the wild-type enzyme.

[2] = CTP A, 0.16 lb ai/acre at V4, V8, LSD (0.05) = 1.45
[3] = CTP A, 0.16 lb ai/acre at V4, V8, LSD (0.05) = 2.2
[4] = CTP A, 2 lb ae/acre at V4, V8, LSD (0.05) = 0.95
[5] = CTP A, 2 lb ae/acre at V4, V8, LSD (0.05) = 1.6
[6] = CTP B, 0.16 lb ai/acre at V4, V8
[7] = CTP C, 0.16 lb ai/acre at V4, V8
[8] = no CTP, 0.16 lb ai/acre at V4, V8

B1: MON-HT9: engineered oxygenase protein, amino acid sequence SEQ ID NO:40 (protein)
chain: MHAALTPLTNKYRFIDVQPLTGVLGAEITGVDLREPLDDSTWNEILDAFHTYQVIYFPAQQITNEQHISFSRRFGPVDPVPLLKSIEGYPEVQMIRREANESGRILGDDWHTDSTFLDAPPAAVVMRAIEVPEYGGDTGFLSMYSAWDTLSDTMKATIEGLNVVHSATRVFGSLYQAQNWRFSNTSVKVMDVDAGDRETVHPLVVSHPVTGRRALYCNQVYCQRIEGMTDAESKCLLQFLYEHATKFDFTCRVRWKKDQVLVWDNLCTMHRAVPDYAGKFRYLTRTTVAGDRPAR
4X 2,4-D CIPV4 (F1 hybrid maize plants; CTP A): 17.5 | 4X 2,4-D CIPV8 (F1 hybrid maize plants; CTP A): 55 | 8X 2,4-D CIPV4 (F1 hybrid maize plants; CTP A): 25 | 8X 2,4-D CIPV8 (F1 hybrid maize plants; CTP A): 75 | 16X 2,4-D CIPV4 (F1 hybrid maize plants; CTP A): 45 | 16X 2,4-D CIPV8 (F1 hybrid maize plants; CTP A): 90 | 2X Quizalofop-P CIPV4 (transgenic maize plants; [2]): 0 | 2X Quizalofop-P CIPV8 (transgenic maize plants; [3]): 0 | 2X 2,4-D CIPV4 (transgenic maize plants; [4]): 3.75 | 2X 2,4-D CIPV8 (transgenic maize plants; [5]): 1.25

B2: MON-HT10: engineered oxygenase protein, amino acid sequence SEQ ID NO:43 (protein)
chain: MHAALTPLTNKYRFIDVQPLCGVLGAEITGVDLREPLDDSTWNEILDAFHTYQVIYFPGQAITNEQHIAFSRRFGPVDPVPLLKSIEGYPEVQMIRREANESGRILGDDWHTDSTFLDAPPAAVVMRAIEVPEYGGDTGFLSMYSAWDTLSDTMKATIEGLNVVHSATRVFGSLYQAQNWRFSNTSVKVMDVDAGDRETVHPLVVSHPVTGRRALYCNQVYCQRIEGMTDAESKCLLQFLYEHATKFDFTCRVRWKKDQVLVWDNLCTMHLAVPDYDGKFRYLTRTTVAGDKPSR
4X 2,4-D CIPV4 (F1 hybrid maize plants; CTP A): 32.5 | 4X 2,4-D CIPV8 (F1 hybrid maize plants; CTP A): 70 | 8X 2,4-D CIPV4 (F1 hybrid maize plants; CTP A): 55 | 8X 2,4-D CIPV8 (F1 hybrid maize plants; CTP A): 87.5 | 16X 2,4-D CIPV4 (F1 hybrid maize plants; CTP A): 45 | 16X 2,4-D CIPV8 (F1 hybrid maize plants; CTP A): 90 | 2X Quizalofop-P CIPV4 (transgenic maize plants; [2]): 0 | 2X Quizalofop-P CIPV8 (transgenic maize plants; [3]): 0 | 2X 2,4-D CIPV4 (transgenic maize plants; [4]): 0 | 2X 2,4-D CIPV8 (transgenic maize plants; [5]): 1.25

B3: MON-HT7: engineered oxygenase protein, amino acid sequence SEQ ID NO:34 (protein)
chain: MHAALTPLTNKYRFIDVQPLTGVLGAEITGVDLREPLDDSTWNEILDAFHTYQVIYFPGQAITNEQHIAFSRRFGPVDPVPLLKSIEGYPEVQMIRREANESGRVIGDDWHADSTFLDAPPAAVVMRAIEVPEYGGDTGFLSMYSAWETLSPTMQATIEGLNVVHSATKVFGSLYQATNWRFSNTSVKVMDVDAGDRETVHPLVVTHPVTGRRALYCNQVYCQKIQGMTDAESKSLLQFLYEHATKFDFTCRVRWKKDQVLVWDNLCTMHRSVPDYAGKFRYLTRTTVAGDKPSR
T1/2, temperature at which the enzyme activity was half of maximum [1]: 47 °C | temperature sensitivity compared with the wild-type enzyme ([1]; substrate 2,4-D, lower T1/2 than wild-type): slightly more temperature sensitive

B4: MON-HT1: engineered oxygenase protein, amino acid sequence SEQ ID NO:14 (protein)
chain: MHAALTPLTNKYRFIDVQPLTGVLGAEITGVDLREPLDDSTWNEILDAFHTYQVIYFPGQAITNEQHIAFSRRFGPVDPVPILKSIEGYPEVQMIRREANESSRFIGDDWHTDSTFLDAPPAAVVMRAIEVPEYGGDTGFLSMYSAWETLSPTMQATIEGLNVVHSATKVFGSLYQATNWRFSNTSVKVMDVDAGDRETVHPLVVTHPVTGRRALYCNQVYCQKIQGMTDAESKSLLQFLYEHATKFDFTCRVRWKKDQVLVWDNLCTMHRAVPDYAGKFRYLTRTTVAGDKPSR
4X 2,4-D CIPV4 (F1 hybrid maize plants; CTP A): 5 | 4X 2,4-D CIPV8 (F1 hybrid maize plants; CTP A): 5 | 8X 2,4-D CIPV4 (F1 hybrid maize plants; CTP A): 5 | 8X 2,4-D CIPV8 (F1 hybrid maize plants; CTP A): 10 | 16X 2,4-D CIPV4 (F1 hybrid maize plants; CTP A): 7.5 | 16X 2,4-D CIPV8 (F1 hybrid maize plants; CTP A): 15 | 4X 2,4-D CIPV4 (F1 hybrid maize plants; CTP B): 5 | 4X 2,4-D CIPV8 (F1 hybrid maize plants; CTP B): 5 | 8X 2,4-D CIPV4 (F1 hybrid maize plants; CTP B): 5 | 8X 2,4-D CIPV8 (F1 hybrid maize plants; CTP B): 10 | 16X 2,4-D CIPV4 (F1 hybrid maize plants; CTP B): 10 | 16X 2,4-D CIPV8 (F1 hybrid maize plants; CTP B): 15 | 4X 2,4-D CIPV4 (F1 hybrid maize plants; CTP C): 5 | 4X 2,4-D CIPV8 (F1 hybrid maize plants; CTP C): 5 | 8X 2,4-D CIPV4 (F1 hybrid maize plants; CTP C): 5 | 8X 2,4-D CIPV8 (F1 hybrid maize plants; CTP C): 10 | 16X 2,4-D CIPV4 (F1 hybrid maize plants; CTP C): 10 | 16X 2,4-D CIPV8 (F1 hybrid maize plants; CTP C): 17.5 | 4X 2,4-D CIPV4 (F1 hybrid maize plants; no CTP): 5 | 4X 2,4-D CIPV8 (F1 hybrid maize plants; no CTP): 5 | 8X 2,4-D CIPV4 (F1 hybrid maize plants; no CTP): 7.5 | 8X 2,4-D CIPV8 (F1 hybrid maize plants; no CTP): 10 | 16X 2,4-D CIPV4 (F1 hybrid maize plants; no CTP): 10 | 16X 2,4-D CIPV8 (F1 hybrid maize plants; no CTP): 22.5 | T1/2, temperature at which the enzyme activity was half of maximum [1]: 42 °C | T1/2 higher than the wild-type enzyme [1]: about 1 °C | 2X Quizalofop-P CIPV4 (transgenic maize plants; [2]): 0 | 2X Quizalofop-P CIPV8 (transgenic maize plants; [3]): 2.125 | 2X 2,4-D CIPV4 (transgenic maize plants; [4]): 0 | 2X 2,4-D CIPV8 (transgenic maize plants; [5]): 2.5 | 2X Quizalofop-P CIPV4 (transgenic maize plants; [6]): 0 | 2X Quizalofop-P CIPV8 (transgenic maize plants; [6]): 1.75 | 2X 2,4-D CIPV4 (transgenic maize plants; CTP B, 2 lb ae/acre at V4, V8): 0 | 2X 2,4-D CIPV8 (transgenic maize plants; CTP B, 2 lb ae/acre at V4, V8): 1.25 | 2X Quizalofop-P CIPV4 (transgenic maize plants; [7]): 0 | 2X Quizalofop-P CIPV8 (transgenic maize plants; [7]): 1.75 | 2X 2,4-D CIPV4 (transgenic maize plants; CTP C, 2 lb ae/acre at V4, V8): 1.25 | 2X 2,4-D CIPV8 (transgenic maize plants; CTP C, 2 lb ae/acre at V4, V8): 1.25 | 2X Quizalofop-P CIPV4 (transgenic maize plants; [8]): 0 | 2X Quizalofop-P CIPV8 (transgenic maize plants; [8]): 1.25 | 2X 2,4-D CIPV4 (transgenic maize plants; no CTP, 2 lb ae/acre at V4, V8): 0 | 2X 2,4-D CIPV8 (transgenic maize plants; no CTP, 2 lb ae/acre at V4, V8): 1.25

B5: MON-HT55: engineered oxygenase protein, amino acid sequence SEQ ID NO:11 (protein)
chain: MHAALSPLSQRFERIAVQPLTGVLGAEITGVDLREPLDDSTWNEILDAFHTYQVIYFPGQAITNEQHIAFSRRFGPVDPVPLLKSIEGYPEVQMIRREANESGRVIGENWHTDSTFLDAPPAAVVMYAKEIPPYGGDTLFTSMYTAWETLSPTMQATIEGLNVVHSATRVFGSLYQAQNRRFSNTSVKVMDVDAGDRETVHPLVVTHPETGRKGLYVNQVYCQRIEGMSEKESEPLLSFLFAHATKPEFTCRVRWQEGDVLVWDNLCTQHYAVPDYAGKFRYLTRTTVGGVRPAR
T1/2, temperature at which the enzyme activity was half of maximum [1]: 29 °C
